Measured values as given in publication PMC11464762, “AXIN1 boosts antiviral response through IRF3 stabilization and induced phase separation” (Signal Transduction and Targeted Therapy, 2024).

Target: T1, GST-IRF3-IR (GST-tagged IRF3 IR domain) (GST carrier left out. Limits are not printed: the paired constructs IRF3-DP and IRF3-IR are read as DBD + proline-rich region and IAD + C-terminal regulatory (response) region. The IR start at about r)
T1 chain: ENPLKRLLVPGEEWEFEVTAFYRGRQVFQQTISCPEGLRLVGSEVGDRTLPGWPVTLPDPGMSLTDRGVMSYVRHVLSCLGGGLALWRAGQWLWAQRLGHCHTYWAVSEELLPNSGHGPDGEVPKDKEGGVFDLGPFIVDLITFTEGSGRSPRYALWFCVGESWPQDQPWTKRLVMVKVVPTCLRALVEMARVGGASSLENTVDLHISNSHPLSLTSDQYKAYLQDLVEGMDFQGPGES
Experiment: ELISA; cell-free; purified GST-IRF3-IR and His-AXIN1-RGS (n = 3); which one was coated is not told
Details: both partners purified

EC50: 1.72 nM
B1: His-AXIN1-RGS (His-tagged AXIN1 RGS domain) (domain or fragment, UniProt O15169 88-211, looked up)
chain: SLHSLLDDQDGISLFRTFLKQEGCADLLDFWFACTGFRKLEPCDSNEEKRLKLARAIYRKYILDNNGIVSRQTKPATKSFIKGCIMKQLIDPAMFDQAQTEIQATMEENTYPSFLKSDIYLEYT
notes: RGS domain of AXIN1; source: purified
